This assay addresses T1, recombinant XPF-HA (human, UniProt Q92889 1-916).
T1 sequence: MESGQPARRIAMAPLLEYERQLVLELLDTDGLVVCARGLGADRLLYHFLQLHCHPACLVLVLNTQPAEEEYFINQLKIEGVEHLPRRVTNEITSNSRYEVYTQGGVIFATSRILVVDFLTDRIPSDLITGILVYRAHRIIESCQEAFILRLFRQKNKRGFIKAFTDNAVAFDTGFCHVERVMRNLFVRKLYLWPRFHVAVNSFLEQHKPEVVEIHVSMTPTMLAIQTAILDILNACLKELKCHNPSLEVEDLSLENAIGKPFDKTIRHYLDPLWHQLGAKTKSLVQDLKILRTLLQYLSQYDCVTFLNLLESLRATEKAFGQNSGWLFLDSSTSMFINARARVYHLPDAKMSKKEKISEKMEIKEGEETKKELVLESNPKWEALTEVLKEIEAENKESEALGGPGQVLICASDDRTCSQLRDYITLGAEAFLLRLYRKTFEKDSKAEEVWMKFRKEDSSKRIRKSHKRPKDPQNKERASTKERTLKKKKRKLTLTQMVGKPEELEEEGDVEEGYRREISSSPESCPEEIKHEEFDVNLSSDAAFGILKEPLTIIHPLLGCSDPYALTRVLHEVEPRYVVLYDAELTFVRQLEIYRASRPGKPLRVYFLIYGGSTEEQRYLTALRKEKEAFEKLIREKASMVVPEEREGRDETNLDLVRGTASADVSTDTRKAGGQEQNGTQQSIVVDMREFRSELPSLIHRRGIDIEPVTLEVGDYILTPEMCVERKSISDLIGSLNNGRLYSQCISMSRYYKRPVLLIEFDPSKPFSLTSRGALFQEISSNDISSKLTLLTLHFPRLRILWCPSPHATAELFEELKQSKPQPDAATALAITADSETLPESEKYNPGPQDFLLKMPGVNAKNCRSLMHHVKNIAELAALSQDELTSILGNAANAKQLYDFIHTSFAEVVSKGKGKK
As to the kind of experiment: SEC. On the technique in general: Size exclusion chromatography separates by hydrodynamic size, large species first.

B1: recombinant ERCC1^R156W-His (natural protein)
chain: MDPGKDKEGVPQPSGPPARKKFVIPLDEDEVPPGVAKPLFRSTQSLPTVDTSAQAAPQTYAEYAISQPLEGAGATCPTGSEPLAGETPNQALKPGAKSNSIIVSPRQRGNPVLKFVRNVPWEFGDVIPDYVLGQSTCALFLSLRYHNLHPDYIHGWLQSLGKNFALRVLLVQVDVKDPQQALKELAKMCILADCTLILAWSPEEAGRYLETYKAYEQKPADLLMEKLEQDFVSRVTECLTTVKSVNKTDSQTLLTTFGSLEQLIAASREDLALCPGLGPQKARRLFDVLHEPFLKVP
B1: the binding result is recorded as “binds”.

These data come from paper PMC7927433 (The Journal of Experimental Medicine, 2020).
